Measured values published in publication PMC5391116 (PLoS ONE, 2017).

Target: Human MET ECD (extracellular domain) containing a FLIS tag (Homo sapiens, UniProt P08581)
Experiment: cell-based or functional assay

Sequence of Human MET ECD (extracellular domain) containing a FLIS tag (P08581 25-932): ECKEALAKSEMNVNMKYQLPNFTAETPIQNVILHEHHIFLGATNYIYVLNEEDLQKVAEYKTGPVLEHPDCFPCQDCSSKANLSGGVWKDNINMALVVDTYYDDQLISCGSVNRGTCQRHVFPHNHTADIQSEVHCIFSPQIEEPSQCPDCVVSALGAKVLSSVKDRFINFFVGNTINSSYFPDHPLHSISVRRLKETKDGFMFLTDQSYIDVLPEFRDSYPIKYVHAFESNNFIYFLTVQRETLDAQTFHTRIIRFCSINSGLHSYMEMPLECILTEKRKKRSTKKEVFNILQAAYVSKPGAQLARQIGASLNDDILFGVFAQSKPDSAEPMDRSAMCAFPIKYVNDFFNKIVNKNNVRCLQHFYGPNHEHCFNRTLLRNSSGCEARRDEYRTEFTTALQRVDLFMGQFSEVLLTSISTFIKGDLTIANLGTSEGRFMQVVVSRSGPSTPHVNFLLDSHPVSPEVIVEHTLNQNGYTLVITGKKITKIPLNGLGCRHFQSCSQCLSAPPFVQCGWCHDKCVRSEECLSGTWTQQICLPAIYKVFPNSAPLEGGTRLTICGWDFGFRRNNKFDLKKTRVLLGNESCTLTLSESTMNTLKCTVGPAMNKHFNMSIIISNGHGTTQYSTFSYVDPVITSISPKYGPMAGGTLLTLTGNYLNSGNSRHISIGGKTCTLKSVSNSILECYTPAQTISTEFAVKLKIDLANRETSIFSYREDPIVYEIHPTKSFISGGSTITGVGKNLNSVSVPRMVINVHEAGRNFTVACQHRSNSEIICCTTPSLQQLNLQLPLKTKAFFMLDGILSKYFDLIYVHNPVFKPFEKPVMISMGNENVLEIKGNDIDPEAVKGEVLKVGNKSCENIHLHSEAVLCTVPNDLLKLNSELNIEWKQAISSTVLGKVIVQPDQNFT

B1: IgG1 MET antibody (variable regions from LY2875358 on human IgG1 constant regions) (antibody, V domains shown)
VH: QVQLVQSGAEVKKPGASVKVSCKASGYTFTDYYMHWVRQAPGQGLEWMGRVNPNRRGTTYNQKFEGRVTMTTDTSTSTAYMELRSLRSDDTAVYYCARANWLDYWGQGTTVTVSS
VL: DIQMTQSPSSLSASVGDRVTITCSVSSSVSSIYLHWYQQKPGKAPKLLIYSTSNLASGVPSRFSGSGSGTDFTLTISSLQPEDFATYYCQVYSGYPLTFGGGTKVEIK
phospho-AKT activity levels in Caki-1 cells (MSD ELISA), various doses of antibody for 15 minutes: > 8 fold
